# According to PMC3879356:
# Target: cytosolic domain of CAML (CAMLcyt), GST-tagged
# Assay: SPR; WRBcc or CAMLcyt immobilised on a HC1000m sensorchip (Reichert SR7000DC); analyte TRC40wt or TRC40wt/RAMP4 in PBS, 15°C, 40 µl/min, injected 270 s, dissociation 12 min; average of three independent measurements
# Sequence of TRC40/RAMP4 complex (MBP-TRC40/HZZ-RAMP4op protein complex) (O43681 whole entry): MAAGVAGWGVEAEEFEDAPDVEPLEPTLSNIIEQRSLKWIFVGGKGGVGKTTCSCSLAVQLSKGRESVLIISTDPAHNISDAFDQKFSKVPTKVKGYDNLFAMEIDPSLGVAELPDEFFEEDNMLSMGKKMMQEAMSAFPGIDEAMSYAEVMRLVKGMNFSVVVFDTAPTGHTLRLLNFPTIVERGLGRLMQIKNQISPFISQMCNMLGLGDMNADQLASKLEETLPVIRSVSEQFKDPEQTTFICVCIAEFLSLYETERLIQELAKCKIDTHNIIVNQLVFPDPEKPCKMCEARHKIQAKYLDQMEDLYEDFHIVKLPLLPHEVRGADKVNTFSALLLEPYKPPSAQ
# Sequence of TRC40/RAMP4 complex (MBP-TRC40/HZZ-RAMP4op protein complex) (Q9Y6X1 whole entry): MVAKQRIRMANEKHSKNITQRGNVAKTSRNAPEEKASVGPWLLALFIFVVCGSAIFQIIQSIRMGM
substance,measurement,value
TRC40/RAMP4 complex (MBP-TRC40/HZZ-RAMP4op protein complex) (from UniProt O43681 1-348; Q9Y6X1 1-66),Kd,34 nM
